Assay results reported in paper PMC7991749.
Values belong to the substance of their own block, whether it stands above or below them.

How the values were obtained:
[1] = system: ctXPD (Chaetomium thermophilum); experiment: photo-cross-linking; conditions: 5 mM Mg2+, FA: 20 mM HEPES pH 7.5, 30 mM KCl, 5 mM MgCl2, 1 mM TCEP, 10 nM DNA, photo-cross-linking: 20 mM HEPES pH 7.5, 50 mM KCl
[2] = system: ctXPD;ctp44 (Chaetomium thermophilum;Chaetomium thermophilum); experiment: photo-cross-linking; conditions: 5 mM Mg2+, 2.5 mM ATP, FA: 20 mM HEPES pH 7.5, 30 mM KCl, 5 mM MgCl2, 1 mM TCEP, 10 nM DNA, room temperature, photo-cross-linking: 20 mM HEPES pH 7.5, 50 mM KCl
[3] = system: ctXPD;ctp44 (Chaetomium thermophilum;Chaetomium thermophilum); experiment: fluorescence anisotropy; conditions: FA: 20 mM HEPES pH 7.5, 30 mM KCl, 5 mM MgCl2, 1 mM TCEP, 10 nM DNA, room temperature, photo-cross-linking: 20 mM HEPES pH 7.5, 50 mM KCl
[4] = molecular target: ctXPD (XPD helicase from Chaetomium thermophilum) (Chaetomium thermophilum)

Substance: AAGCCTATGCCTACAGCATCCAGGGCGACGGTGCCGAGGATGACGATGAGCGCA / TGCGCTCATCGTCATCCTCGGCACCGTCGCCCTGGATG [fs-Fab(g)-dC 54/38]
binding signal (fold vs same probe without ATP) ([1]; 2.5 mM ATP, no ctp44, position 26 of strand 1 (B) = Fab(g)-dC, room temperature): 2.1 | binding signal (fold vs same mixture without ATP) ([2]; ctXPD adduct, position 26 of strand 1 (B) = Fab(g)-dC): 1.8 | binding signal (fold vs same mixture without ATP) ([2]; ctp44 adduct, position 26 of strand 1 (B) = Fab(g)-dC): 2

Substance: AAGCCTATGCCTACAGCATCCAGGGCGACGGTGCCGAGGATGACGATGAGCGCA / TGCGCTCATCGTCATCCTCGGCACCGTCGCCCTGGATG [fs-Fap-dC 54/38]
binding signal (relative cross-linking (reference)) ([1]; no ATP, no ctp44, Fap-dC at position 26 of strand 1 (position inferred from parallel oligos), room temperature): 1 | binding signal (fold vs same mixture without ATP) ([2]; ctXPD adduct, Fap-dC at position 26 of strand 1 (position inferred from parallel oligos)): 2.6 | binding signal (fold vs same mixture without ATP) ([2]; ctp44 adduct, Fap-dC at position 26 of strand 1 (position inferred from parallel oligos)): 2

Substance: AAGCCTATGCCTACAGCATCCAGGGCGACGGTGCCGAGGATGACGATGAGCGCA [ss-Fab(g)-dC 54]
binding signal (fold cross-linking vs ds probe) ([1]; position 26 (B) = Fab(g)-dC, room temperature, 5 mM MgCl2, 1 mM …): 3

Substance: AAGCCTATGCCTACAGCATCCAGGGCGACGGTGCCGAGGATGACGATGAGCGCA [ss-Fap-dC 54]
binding signal (fold cross-linking vs ds probe) ([1]; Fap-dC at position 26 (position inferred from parallel oligos), room …): 3

Substance: ATGCCTACAGCAAGCCTATGCCTACAGCATCCAGGGCGACGGTGCCGAG [ss-Fab(g)-dC 49]
K half ([3]; 5 mM Mg2+, 2 mM ATP, EC50, position 37 (B) = Fab(g)-dC): 268 nM

Substance: ATGCCTACAGCAAGCCTATGCCTACAGCATCCAGGGCGACGGTGCCGAG [ss-Fap-dC 49]
K half ([3]; 5 mM Mg2+, 2 mM ATP, EC50, Fap-dC at position 37 (position inferred from parallel oligos)): 307 nM | K half ([3]; Fap-dC at position 37 (position inferred from parallel oligos)): 200 nM

Substance: ATGCCTACAGCAAGCCTATGCCTACAGCATCCAGGGCGACGGTGCCGAG [ss-um 49]
K half ([3]; none): 500 nM

Substance: ATGCCTACAGCAAGCCTATGCCTACAGCATCCAGGGNGACGGTGCCGAG [ss-nAnt 49 (ss-Ant)]
K half ([3]; position 37 (N; printed A) = nAnt, N-[6-(9-anthracenylcarbamoyl)hexanoyl]-3-amino-1,2-propanediol, non-nucleoside lesion): 63 nM

Substance: ATGCCTACAGCAAGCCTATGCCTACAGCATCCAGGGNGACGGTGCCGAG [ss-nFlu 49]
K half ([3]; position 37 (N; printed F) = nFlu lesion): 3 nM

ATPase activity of ctXPD (NADH-coupled assay, 37°C): activation by 4 to 1000 nM ctp44 titrated onto 250 nM ctXPD in the presence of 1 μM ssDNA [4]: 82 nM
Substance: ctp44 (1-285) (domain or fragment)
